Source: publication PMC4351158 (Structure (London, England : 1993), 2015)
Where no end group is shown, it is not given here. fluorescein = fluorescein, a fluorescent label on the peptide N-terminus

How the values were obtained:
Assay in all cases: fluorescence polarisation
DegS Y162A = biological target: T1, DegS Y162A (E. coli, UniProt P0AEE3 27-355, Y162A)
T1 sequence (looked up): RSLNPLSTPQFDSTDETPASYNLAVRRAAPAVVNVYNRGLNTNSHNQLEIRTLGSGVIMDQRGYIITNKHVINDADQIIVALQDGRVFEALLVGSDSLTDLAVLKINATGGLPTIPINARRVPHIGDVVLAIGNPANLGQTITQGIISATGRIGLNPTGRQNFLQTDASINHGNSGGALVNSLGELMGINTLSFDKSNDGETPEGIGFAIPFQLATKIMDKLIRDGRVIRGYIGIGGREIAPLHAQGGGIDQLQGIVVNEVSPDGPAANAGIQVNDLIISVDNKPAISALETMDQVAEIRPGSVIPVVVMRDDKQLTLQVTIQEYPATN

DegS L164A = biological target: T2, DegS L164A (E. coli, UniProt P0AEE3 27-355, L164A)
T2 sequence (looked up): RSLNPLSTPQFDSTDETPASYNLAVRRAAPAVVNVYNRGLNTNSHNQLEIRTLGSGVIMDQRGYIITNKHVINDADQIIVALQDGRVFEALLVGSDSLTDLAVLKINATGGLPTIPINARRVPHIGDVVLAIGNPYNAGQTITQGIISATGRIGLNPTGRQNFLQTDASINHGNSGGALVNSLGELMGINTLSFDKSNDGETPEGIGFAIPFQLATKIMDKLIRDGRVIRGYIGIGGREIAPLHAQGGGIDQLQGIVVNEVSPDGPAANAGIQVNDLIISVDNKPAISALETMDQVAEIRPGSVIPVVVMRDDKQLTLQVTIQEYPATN

DegS Q191A = biological target: T3, DegS Q191A (E. coli, UniProt P0AEE3 27-355, Q191A)
T3 sequence (looked up): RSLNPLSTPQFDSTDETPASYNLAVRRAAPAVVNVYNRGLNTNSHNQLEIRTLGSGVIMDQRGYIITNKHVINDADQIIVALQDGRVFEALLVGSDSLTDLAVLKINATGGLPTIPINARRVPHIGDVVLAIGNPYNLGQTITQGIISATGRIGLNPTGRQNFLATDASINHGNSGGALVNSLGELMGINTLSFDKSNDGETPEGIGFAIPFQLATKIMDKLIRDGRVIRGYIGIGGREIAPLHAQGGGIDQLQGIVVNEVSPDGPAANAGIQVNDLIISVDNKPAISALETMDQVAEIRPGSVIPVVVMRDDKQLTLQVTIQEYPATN

DegS N197A/H198P = biological target: T4, DegS N197A/H198P (E. coli, UniProt P0AEE3 27-355, N197A | H198P)
T4 sequence (looked up): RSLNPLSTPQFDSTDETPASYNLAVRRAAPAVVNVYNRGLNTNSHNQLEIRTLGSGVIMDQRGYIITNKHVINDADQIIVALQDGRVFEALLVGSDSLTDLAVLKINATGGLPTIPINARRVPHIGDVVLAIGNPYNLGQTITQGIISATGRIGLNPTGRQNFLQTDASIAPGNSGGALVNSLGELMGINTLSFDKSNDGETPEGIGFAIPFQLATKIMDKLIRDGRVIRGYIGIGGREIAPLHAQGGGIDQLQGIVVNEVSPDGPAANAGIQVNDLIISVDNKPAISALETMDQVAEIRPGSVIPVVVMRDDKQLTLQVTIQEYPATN

DegS H198P = biological target: T5, DegS H198P (E. coli, UniProt P0AEE3 27-355, H198P)
T5 sequence (looked up): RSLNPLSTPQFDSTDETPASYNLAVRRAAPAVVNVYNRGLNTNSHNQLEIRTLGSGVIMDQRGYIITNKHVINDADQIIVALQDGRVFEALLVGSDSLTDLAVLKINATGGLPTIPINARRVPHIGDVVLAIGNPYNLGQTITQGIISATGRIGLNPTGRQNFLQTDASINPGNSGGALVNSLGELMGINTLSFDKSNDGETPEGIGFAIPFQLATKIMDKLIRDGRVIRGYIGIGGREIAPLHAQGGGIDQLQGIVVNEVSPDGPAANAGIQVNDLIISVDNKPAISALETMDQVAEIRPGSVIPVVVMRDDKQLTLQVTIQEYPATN

DegS P229A = biological target: T6, DegS P229A (E. coli, UniProt P0AEE3 27-355, P229A)
T6 sequence (looked up): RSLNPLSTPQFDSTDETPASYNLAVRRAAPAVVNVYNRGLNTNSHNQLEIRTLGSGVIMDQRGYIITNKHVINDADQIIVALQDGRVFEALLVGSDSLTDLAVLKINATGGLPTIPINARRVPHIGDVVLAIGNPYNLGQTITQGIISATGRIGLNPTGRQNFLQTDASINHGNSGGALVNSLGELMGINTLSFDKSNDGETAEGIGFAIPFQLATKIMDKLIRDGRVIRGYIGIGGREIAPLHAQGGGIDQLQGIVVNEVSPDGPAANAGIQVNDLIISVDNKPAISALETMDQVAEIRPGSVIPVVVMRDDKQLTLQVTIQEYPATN

B1: fluorescent OMP peptide fluorescein-DNRDGNVYYF (peptide)
peptide: fluorescein-DNRDGNVYYF
DegS Y162A
  Kd: 1.9 ± 0.4 µM
DegS L164A
  Kd: 2.8 ± 0.6 µM
DegS Q191A
  Kd: 3.4 ± 1.3 µM
DegS N197A/H198P
  Kd: 0.7 ± 0.1 µM
DegS H198P
  Kd: 2.5 ± 0.3 µM
DegS P229A
  Kd: 1.6 ± 0.2 µM
